Target: T1, human BiP (Homo sapiens, UniProt P11021)
T1 construct: The human BiP gene except the signal peptide encoding region was obtained from Geneart (Germany); linker […]; made in house; host or cells: HEK 293E cells, transient transfection, PABC674 vector; secreted into the medium
Assay: ELISA: binding of BiP-FLAG-His to immobilized (misfolded) protein ligands
Details: ligands coated at 5 μg/ml; 6BB peptides and oxLDL 50 μg/ml
Description: Enzyme Linked Immunosorbent Assay for Testing of Chaperone Binding to Misfolded Proteins
Binding of chaperones to immobilized (misfolded) protein ligands was determined using an enzyme linked immuno sorbent assay (ELISA) approach. For this purpose 50 μl/well of potential ligands at indicated concentrations or coat buffer only for control and background measurement purposes, were coated overnight at 4° C. or coated for 1 h at room temperature, with motion, in 50 mM NaHCO3 pH 9.6 (coat buffer). In general, ligands were coated at 5 μg/ml, unless stated otherwise. For example, BiP binding peptides 6BB# and oxLDL were coated at 50 μg/ml. Native haemoglobin (Sigma-Aldrich, H7379), albumin, IgIV Gammagard and ovalbumin controls were prepared from lyophilized stocks. The controls were prepared by dissolving lyophilized proteins at 1 mg/ml in PBS upon resuspending by pipetting, followed by a 30 minutes period at the roller device, at room temperature. The protein solutions were centrifuged for 10 minutes at 16,000*g and diluted in coat buffer. […] After 5 washes with wash buffer followed by two washes with PBS, binding of antibodies was assessed. […] Plates were read at 450 nm. Triplicates were averaged and standard deviations calculated. […] Subsequently, sub-optimal concentrations of chaperones for binding to misfolded protein ligands are determined, and these concentrations are used for inhibition studies. […]

T1 sequence (P11021 19-654): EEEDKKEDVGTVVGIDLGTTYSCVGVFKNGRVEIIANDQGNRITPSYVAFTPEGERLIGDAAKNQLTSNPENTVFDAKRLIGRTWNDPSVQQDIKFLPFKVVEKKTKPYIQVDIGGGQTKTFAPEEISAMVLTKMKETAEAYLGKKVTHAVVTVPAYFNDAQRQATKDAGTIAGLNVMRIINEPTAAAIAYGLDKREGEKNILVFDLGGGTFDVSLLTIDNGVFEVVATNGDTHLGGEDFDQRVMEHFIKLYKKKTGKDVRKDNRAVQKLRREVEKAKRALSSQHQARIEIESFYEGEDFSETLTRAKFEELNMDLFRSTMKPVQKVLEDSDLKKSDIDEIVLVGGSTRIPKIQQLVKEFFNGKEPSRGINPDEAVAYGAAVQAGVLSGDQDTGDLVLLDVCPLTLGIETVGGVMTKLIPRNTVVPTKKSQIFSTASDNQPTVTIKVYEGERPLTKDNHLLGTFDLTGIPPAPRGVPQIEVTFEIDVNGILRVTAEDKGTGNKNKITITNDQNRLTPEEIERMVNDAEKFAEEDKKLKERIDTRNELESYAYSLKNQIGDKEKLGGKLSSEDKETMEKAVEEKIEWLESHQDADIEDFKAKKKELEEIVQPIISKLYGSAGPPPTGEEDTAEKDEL

Binding of concentration series of BiP to coated ligand: has been established
B1: dOVA standard: heat-denatured chicken ovalbumin (protein)
chain: GSIGAASMEFCFDVFKELKVHHANENIFYCPIAIMSALAMVYLGAKDSTRTQINKVVRFDKLPGFGDSIEAQCGTSVNVHSSLRDILNQITKPNDVYSFSLASRLYAEERYPILPEYLQCVKELYRGGLEPINFQTAADQARELINSWVESQTNGIIRNVLQPSSVDSQTAMVLVNAIVFKGLWEKAFKDEDTQAMPFRVTEQESKPVQMMYQIGLFRVASMASEKMKILELPFASGTMSMLVLLPDEVSGLEQLESIINFEKLTEWTSSNVMEERKIKVYLPRMKMEEKYNLTSVLMAMGITDVFSSSANLSGISSAESLKISQAVHAAHAEINEAGREVVGSAEAGVDAASVSEEFRADHPFLFCIKHIATNAVLFFGRCVSP

— patent publication US20100015126A1, “Methods of Binding of Cross-Beta Structures By Chaperones” (priority 2006, published 2010)
